From WO2013041865A1

Experiments:
[1] = biological target: … HLA-A*01 complex (MAGE-3 peptide, soluble biotinylated pHLA); test: SPR (BIAcore 3000); biotinylated pHLA on streptavidin chip, soluble TCR injected, 25 C
[2] = biological target: … HLA-A*01 complex (MAGE-3 peptide, soluble biotinylated pHLA); test: SPR (BIAcore) method of Example 3

B1: reference MAGE-3 TCR (disulfide linked soluble heterodimeric form) (TCR, V domains shown)
V domain 1: KQEVTQIPAALSVPEGENLVLNCSFTDSAIYNLQWFRQDPGKGLTSLLLIQSSQREQTSGRLNASLDKSSGRSTLYIAASQPGDSATYLCAVRPGGAGSYQLTFGKGTKLSVIP
V domain 2: KAGVTQTPRYLIKTRGQQVTLSCSPISGHRSVSWYQQTPGQGLQFLFEYFSETQRNKGNFPGRFSGRQFSNSRSEMNVSTLELGDSALYLCASSPNMADEQYFGPGTRLTVTE
T½ (binding half-life) [1]: 3 s | koff [2]: 0.2 s⁻¹
